# B1: Emerin (Homo sapiens), P50402 (parent)
# chain: MDNYADLSDTELTTLLRRYNIPHGPVVGSTRRLYEKKIFEYETQRRRLSPPSSSAASSYSFSDLNSTRGDADMYDLPKKEDALLYQSKGYNDDYYEESYFTTRTYGEPESAGPSRAVRQSVTSFPDADAFHHQVHDDDLLSSSEEECKDRERPMYGRDSAYQSITHYRPVSASRSSLDLSYYPTSSSTSFMSSSSSSSSWLTRRAIRPENRAPGAGLGQDRQVPLWGQLLLFLVFVIVLFFIYHFMQAEEGNPF
# partner: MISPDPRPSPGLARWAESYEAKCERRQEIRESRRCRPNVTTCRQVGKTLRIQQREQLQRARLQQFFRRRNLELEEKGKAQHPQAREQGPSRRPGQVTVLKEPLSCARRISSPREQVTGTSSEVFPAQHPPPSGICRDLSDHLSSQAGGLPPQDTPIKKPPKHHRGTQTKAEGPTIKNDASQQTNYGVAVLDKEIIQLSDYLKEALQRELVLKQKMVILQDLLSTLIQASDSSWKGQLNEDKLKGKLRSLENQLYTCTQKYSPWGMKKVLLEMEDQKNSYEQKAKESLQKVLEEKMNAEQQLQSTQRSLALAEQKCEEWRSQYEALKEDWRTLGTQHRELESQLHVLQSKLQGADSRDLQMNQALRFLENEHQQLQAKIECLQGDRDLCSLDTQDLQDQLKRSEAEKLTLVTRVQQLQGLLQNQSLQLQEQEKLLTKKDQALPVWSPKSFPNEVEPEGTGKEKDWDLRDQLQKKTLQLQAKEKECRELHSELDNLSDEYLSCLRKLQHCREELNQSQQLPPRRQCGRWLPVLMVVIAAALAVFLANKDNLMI
# B2: Progranulin (Homo sapiens), P28799 (parent)
# chain: MWTLVSWVALTAGLVAGTRCPDGQFCPVACCLDPGGASYSCCRPLLDKWPTTLSRHLGGPCQVDAHCSAGHSCIFTVSGTSSCCPFPEAVACGDGHHCCPRGFHCSADGRSCFQRSGNNSVGAIQCPDSQFECPDFSTCCVMVDGSWGCCPMPQASCCEDRVHCCPHGAFCDLVHTRCITPTGTHPLAKKLPAQRTNRAVALSSSVMCPDARSRCPDGSTCCELPSGKYGCCPMPNATCCSDHLHCCPQDTVCDLIQSKCLSKENATTDLLTKLPAHTVGDVKCDMEVSCPDGYTCCRLQSGAWGCCPFTQAVCCEDHIHCCPAGFTCDTQKGTCEQGPHQVPWMEKAPAHLSLPDPQALKRDVPCDNVSSCPSSDTCCQLTSGEWGCCPIPEAVCCSDHQHCCPQGYTCVAEGQCQRGSEIVAGLEKMPARRASLSHPRDIGCDQHTSCPVGQTCCPSLGGSWACCQLPHAVCCEDRQHCCPAGYTCNVKARSCEKEVVSAQPATFLARSPHVGVKDVECGEGHFCHDNQTCCRDNRQGWACCPYRQGVCCADRRHCCPAGFRCAARGTKCLRREAPRWDAPLRDPALRQLL
# partner: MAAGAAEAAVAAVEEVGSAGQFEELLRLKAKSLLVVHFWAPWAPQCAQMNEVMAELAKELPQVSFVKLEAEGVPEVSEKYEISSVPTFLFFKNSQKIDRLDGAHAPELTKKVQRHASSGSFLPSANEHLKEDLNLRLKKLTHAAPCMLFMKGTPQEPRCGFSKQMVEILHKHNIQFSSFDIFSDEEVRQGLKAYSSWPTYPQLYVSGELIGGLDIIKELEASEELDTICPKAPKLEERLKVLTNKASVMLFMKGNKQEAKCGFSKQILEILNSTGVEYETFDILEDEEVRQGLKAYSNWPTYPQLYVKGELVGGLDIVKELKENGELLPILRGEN
# B3: Ubiquitin-protein ligase (Homo sapiens), Q05086 (parent)
# chain: MEKLHQCYWKSGEPQSDDIEASRMKRAAAKHLIERYYHQLTEGCGNEACTNEFCASCPTFLRMDNNAAAIKALELYKINAKLCDPHPSKKGASSAYLENSKGAPNNSCSEIKMNKKGARIDFKDVTYLTEEKVYEILELCREREDYSPLIRVIGRVFSSAEALVQSFRKVKQHTKEELKSLQAKDEDKDEDEKEKAACSAAAMEEDSEASSSRIGDSSQGDNNLQKLGPDDVSVDIDAIRRVYTRLLSNEKIETAFLNALVYLSPNVECDLTYHNVYSRDPNYLNLFIIVMENRNLHSPEYLEMALPLFCKAMSKLPLAAQGKLIRLWSKYNADQIRRMMETFQQLITYKVISNEFNSRNLVNDDDAIVAASKCLKMVYYANVVGGEVDTNHNEEDDEEPIPESSELTLQELLGEERRNKKGPRVDPLETELGVKTLDCRKPLIPFEEFINEPLNEVLEMDKDYTFFKVETENKFSFMTCPFILNAVTKNLGLYYDNRIRMYSERRITVLYSLVQGQQLNPYLRLKVRRDHIIDDALVRLEMIAMENPADLKKQLYVEFEGEQGVDEGGVSKEFFQLVVEEIFNPDIGMFTYDESTKLFWFNPSSFETEGQFTLIGIVLGLAIYNNCILDVHFPMVVYRKLMGKKGTFRDLGDSHPVLYQSLKDLLEYEGNVEDDMMITFQISQTDLFGNPMMYDLKENGDKIPITNENRKEFVNLYSDYILNKSVEKQFKAFRRGFHMVTNESPLKYLFRPEEIELLICGSRNLDFQALEETTEYDGGYTRDSVLIREFWEIVHSFTDEQKRLFLQFTTGTDRAPVGGLGKLKMIIAKNGPDTERLPTSHTCFNVLLLPEYSSKEKLKERLLKAITYAKGFGML
# partner: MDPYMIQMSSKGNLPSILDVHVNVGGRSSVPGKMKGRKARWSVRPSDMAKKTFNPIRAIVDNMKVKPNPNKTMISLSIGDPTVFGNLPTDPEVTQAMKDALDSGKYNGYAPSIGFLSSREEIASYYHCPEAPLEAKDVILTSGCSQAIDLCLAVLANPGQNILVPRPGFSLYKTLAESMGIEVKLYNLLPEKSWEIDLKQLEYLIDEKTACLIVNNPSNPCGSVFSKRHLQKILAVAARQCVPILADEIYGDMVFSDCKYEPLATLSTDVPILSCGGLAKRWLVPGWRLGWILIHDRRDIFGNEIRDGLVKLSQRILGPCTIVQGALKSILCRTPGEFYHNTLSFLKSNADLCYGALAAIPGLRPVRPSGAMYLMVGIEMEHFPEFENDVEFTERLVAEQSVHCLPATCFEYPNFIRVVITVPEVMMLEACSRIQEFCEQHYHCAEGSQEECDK
# B4: DNA repair protein XRCC4 (Homo sapiens), Q13426 (parent)
# chain: MERKISRIHLVSEPSITHFLQVSWEKTLESGFVITLTDGHSAWTGTVSESEISQEADDMAMEKGKYVGELRKALLSGAGPADVYTFNFSKESCYFFFEKNLKDVSFRLGSFNLEKVENPAEVIRELICYCLDTIAENQAKNEHLQKENERLLRDWNDVQGRFEKCVSAKEALETDLYKRFILVLNEKKTKIRSLHNKLLNAAQEREKDIKQEGETAICSEMTADRDPVYDESTDEESENQTDLSGLASAAVSKDDSIISSLDVTDIAPSRKRRQRMQRNLGTEPKMAPQENQLQEKENSRPDSSLPETSKKEHISAENMSLETLRNSSPEDLFDEI
# B5: Sialidase-2 (Homo sapiens), Q9Y3R4 (parent)
# chain: MASLPVLQKESVFQSGAHAYRIPALLYLPGQQSLLAFAEQRASKKDEHAELIVLRRGDYDAPTHQVQWQAQEVVAQARLDGHRSMNPCPLYDAQTGTLFLFFIAIPGQVTEQQQLQTRANVTRLCQVTSTDHGRTWSSPRDLTDAAIGPAYREWSTFAVGPGHCLQLHDRARSLVVPAYAYRKLHPIQRPIPSAFCFLSHDHGRTWARGHFVAQDTLECQVAEVETGEQRVVTLNARSHLRARVQAQSTNDGLDFQESQLVKKLVEPPPQGCQGSVISFPSPRSGPGSPAQWLLYTHPTHSWQRADLGAYLNPRPPAPEAWSEPVLLAKGSCAYSDLQSMGTGPDGSPLFGCLYEANDYEEIVFLMFTLKQAFPAEYLPQ
# B6: NADH dehydrogenase [ubiquinone] 1 alpha subcomplex assembly factor 4 (Homo sapiens), Q9P032 (parent)
# chain: MGALVIRGIRNFNLENRAEREISKMKPSVAPRHPSTNSLLREQISLYPEVKGEIARKDEKLLSFLKDVYVDSKDPVSSLQVKAAETCQEPKEFRLPKDHHFDMINIKSIPKGKISIVEALTLLNNHKLFPETWTAEKIMQEYQLEQKDVNSLLKYFVTFEVEIFPPEDKKAIRSK
# B7: Dolichol-phosphate mannosyltransferase subunit 1 (Homo sapiens), O60762 (parent)
# chain: MASLEVSRSPRRSRRELEVRSPRQNKYSVLLPTYNERENLPLIVWLLVKSFSESGINYEIIIIDDGSPDGTRDVAEQLEKIYGSDRILLRPREKKLGLGTAYIHGMKHATGNYIIIMDADLSHHPKFIPEFIRKQKEGNFDIVSGTRYKGNGGVYGWDLKRKIISRGANFLTQILLRPGASDLTGSFRLYRKEVLEKLIEKCVSKGYVFQMEMIVRARQLNYTIGEVPISFVDRVYGESKLGGNEIVSFLKGLLTLFATT
# B8: U4/U6 small nuclear ribonucleoprotein Prp31 (Homo sapiens), Q8WWY3 (parent)
# chain: MSLADELLADLEEAAEEEEGGSYGEEEEEPAIEDVQEETQLDLSGDSVKTIAKLWDSKMFAEIMMKIEEYISKQAKASEVMGPVEAAPEYRVIVDANNLTVEIENELNIIHKFIRDKYSKRFPELESLVPNALDYIRTVKELGNSLDKCKNNENLQQILTNATIMVVSVTASTTQGQQLSEEELERLEEACDMALELNASKHRIYEYVESRMSFIAPNLSIIIGASTAAKIMGVAGGLTNLSKMPACNIMLLGAQRKTLSGFSSTSVLPHTGYIYHSDIVQSLPPDLRRKAARLVAAKCTLAARVDSFHESTEGKVGYELKDEIERKFDKWQEPPPVKQVKPLPAPLDGQRKKRGGRRYRKMKERLGLTEIRKQANRMSFGEIEEDAYQEDLGFSLGHLGKSGSGRVRQTQVNEATKARISKTLQRTLQKQSVVYGGKSTIRDRSSGTASSVAFTPLQGLEIVNPQAAEKKVAEANQKYFSSMAEFLKVKGEKSGLMST
# partner: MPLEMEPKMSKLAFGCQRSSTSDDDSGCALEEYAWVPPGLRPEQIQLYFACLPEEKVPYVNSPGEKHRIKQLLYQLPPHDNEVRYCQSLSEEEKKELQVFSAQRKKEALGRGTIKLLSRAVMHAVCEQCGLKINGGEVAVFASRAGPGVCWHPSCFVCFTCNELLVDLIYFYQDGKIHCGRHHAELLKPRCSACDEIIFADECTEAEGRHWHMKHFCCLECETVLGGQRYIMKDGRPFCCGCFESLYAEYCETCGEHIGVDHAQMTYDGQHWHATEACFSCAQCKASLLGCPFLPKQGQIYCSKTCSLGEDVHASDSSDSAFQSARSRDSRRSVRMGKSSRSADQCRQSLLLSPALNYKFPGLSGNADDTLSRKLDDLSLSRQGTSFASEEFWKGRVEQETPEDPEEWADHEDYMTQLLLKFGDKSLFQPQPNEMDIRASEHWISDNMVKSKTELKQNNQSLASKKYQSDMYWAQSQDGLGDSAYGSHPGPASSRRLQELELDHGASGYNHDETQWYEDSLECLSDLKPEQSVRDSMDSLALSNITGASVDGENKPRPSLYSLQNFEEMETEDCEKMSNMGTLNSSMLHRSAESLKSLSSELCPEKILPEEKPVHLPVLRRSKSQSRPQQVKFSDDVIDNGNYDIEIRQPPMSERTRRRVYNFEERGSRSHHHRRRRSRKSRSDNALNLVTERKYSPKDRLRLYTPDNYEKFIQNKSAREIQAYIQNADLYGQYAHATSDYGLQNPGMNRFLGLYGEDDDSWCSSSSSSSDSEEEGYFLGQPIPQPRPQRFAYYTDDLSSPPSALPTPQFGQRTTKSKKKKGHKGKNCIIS
# B9: Emerin (Homo sapiens), P50402 (parent)
# chain: B1 chain
# partner: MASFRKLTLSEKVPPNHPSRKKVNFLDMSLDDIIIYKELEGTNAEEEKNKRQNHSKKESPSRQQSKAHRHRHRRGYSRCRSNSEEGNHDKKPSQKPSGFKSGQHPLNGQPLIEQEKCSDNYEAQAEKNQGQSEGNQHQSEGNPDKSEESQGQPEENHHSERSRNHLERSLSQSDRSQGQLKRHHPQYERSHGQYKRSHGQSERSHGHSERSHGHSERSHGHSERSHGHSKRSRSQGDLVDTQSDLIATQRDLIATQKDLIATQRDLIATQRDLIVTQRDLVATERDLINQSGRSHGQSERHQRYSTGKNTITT
# Variants of: B1
# Details: with TRAF3IP3, Q9Y228
row,Variant,effect of a mutation on the interaction
1,D72V,with no effect
2,P183H,with no effect
3,P183T,with no effect

# Variants of: B2
# Details: with glrx3_human GLRX3, O76003
row,Variant,effect of a mutation on the interaction
1,A9D,disrupting interaction strength
2,P248L,with no effect
3,R432C,disrupting interaction strength
4,P451L,disrupting interaction strength

# Variants of: B3
# Details: with atty_human TAT
row,Variant,effect of a mutation on the interaction
1,I827K,disrupting interaction strength
2,S372P,disrupting interaction strength
3,R529C,disrupting interaction strength

# Variants of: B4
# Details: with XRCC4, Q13426-3
row,Variant,effect of a mutation on the interaction
1,I134T,with no effect

# Variants of: B5
# Details: with nt2na_human NOTCH2NLA
row,Variant,effect of a mutation on the interaction
1,R41Q,with no effect

# Variants of: B6
# Details: with NDUFAF3, Q9BU61-2
# NDUFAF3, Q9BU61-2, sequence (Q9BU61 58-184): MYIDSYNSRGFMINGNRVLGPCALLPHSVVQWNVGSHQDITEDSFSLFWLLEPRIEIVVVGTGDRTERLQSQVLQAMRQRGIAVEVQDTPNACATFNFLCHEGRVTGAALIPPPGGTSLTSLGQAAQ
row,Variant,effect of a mutation on the interaction
1,L65P,with no effect

# Variants of: B7
# Details: with t23o_human TDO2, P48775
# t23o_human TDO2, P48775, sequence (P48775 whole entry, looked up): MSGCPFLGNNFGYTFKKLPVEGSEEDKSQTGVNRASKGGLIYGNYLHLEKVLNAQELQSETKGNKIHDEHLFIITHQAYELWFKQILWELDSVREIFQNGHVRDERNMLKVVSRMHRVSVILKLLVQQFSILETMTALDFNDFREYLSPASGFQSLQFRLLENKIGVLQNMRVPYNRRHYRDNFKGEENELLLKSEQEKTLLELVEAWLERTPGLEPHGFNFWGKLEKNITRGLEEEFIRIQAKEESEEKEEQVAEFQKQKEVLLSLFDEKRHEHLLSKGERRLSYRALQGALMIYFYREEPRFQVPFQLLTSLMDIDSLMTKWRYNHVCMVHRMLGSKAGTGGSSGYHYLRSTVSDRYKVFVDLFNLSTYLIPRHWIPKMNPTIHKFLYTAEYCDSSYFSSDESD
row,Variant,effect of a mutation on the interaction
1,R92G,with no effect
2,S248P,with no effect

# Variants of: B8
# Details: with pric1_human PRICKLE1, Q96MT3
row,Variant,effect of a mutation on the interaction
1,L107V,with no effect

# Variants of: B9
# Details: with luzp4_human LUZP4, Q9P127
row,Variant,effect of a mutation on the interaction
1,S54F,with no effect
2,D72V,with no effect
3,P183H,with no effect
4,P183T,with no effect

# Reference: IntAct's records for PubMed 25910212
